Patent publication US20150118238A1

Target: RON on RON-transfected NIH 3T3 cells (UniProt Q04912)
Assay: IHC on FFPE RON-transfected NIH3T3 cells, Aperio Positive Pixel Count

- Relative Positive Pixel Intensity Score: 221
Substance: EP1132Y antibody (Anti-RON)
